From PMC3229523, “Identification of Lactoferricin B Intracellular Targets Using an Escherichia coli Proteome Chip” (PLoS ONE, 2011)
Ends that are not written are not given here. * marks the point of attachment. Biotin = O=C1N[C@H]2[C@H](CS[C@H]2CCCCC(=O)*)N1

Experiments:
Assay in all cases: peptide or protein array; E. coli proteome chip: purified His-tagged proteins printed in duplicate on Fullmoon slides, blocked with 1% BSA; 10 nM N-terminal biotinylated LfcinB with 1% BSA, room temperature, 1 h; detected with DyLight 649-labeled streptavidin, ratio to DyLight 549-labeled anti-His antibody; ProCAT normalisation, local cut-off; triplicate chips
Settings in all cases: both partners purified
CadA = target: T1, CadA (E. coli K-12, UniProt P0A9H3 1-715)
T1 construct: CadA, E. coli K-12
T1 sequence (looked up): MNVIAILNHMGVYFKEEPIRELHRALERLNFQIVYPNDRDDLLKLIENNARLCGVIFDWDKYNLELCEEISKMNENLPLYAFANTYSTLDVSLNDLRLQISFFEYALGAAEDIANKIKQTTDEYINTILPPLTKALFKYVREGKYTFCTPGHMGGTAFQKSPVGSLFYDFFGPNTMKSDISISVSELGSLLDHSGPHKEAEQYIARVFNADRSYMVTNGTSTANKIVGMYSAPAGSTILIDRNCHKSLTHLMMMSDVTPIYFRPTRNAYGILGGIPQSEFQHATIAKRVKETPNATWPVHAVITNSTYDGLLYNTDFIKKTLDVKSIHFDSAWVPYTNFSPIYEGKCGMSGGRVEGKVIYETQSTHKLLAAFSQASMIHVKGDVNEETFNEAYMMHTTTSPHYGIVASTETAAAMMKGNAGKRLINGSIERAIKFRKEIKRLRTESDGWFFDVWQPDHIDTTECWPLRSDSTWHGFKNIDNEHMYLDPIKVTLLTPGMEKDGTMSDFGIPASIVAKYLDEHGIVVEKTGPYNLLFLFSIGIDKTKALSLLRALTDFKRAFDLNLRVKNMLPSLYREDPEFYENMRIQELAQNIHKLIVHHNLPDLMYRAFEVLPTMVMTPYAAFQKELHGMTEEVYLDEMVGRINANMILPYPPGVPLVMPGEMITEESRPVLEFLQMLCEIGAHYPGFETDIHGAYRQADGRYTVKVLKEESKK

HemC = target: T2, HemC (E. coli K-12, UniProt P06983 1-313)
T2 construct: HemC, E. coli K-12
T2 sequence (looked up): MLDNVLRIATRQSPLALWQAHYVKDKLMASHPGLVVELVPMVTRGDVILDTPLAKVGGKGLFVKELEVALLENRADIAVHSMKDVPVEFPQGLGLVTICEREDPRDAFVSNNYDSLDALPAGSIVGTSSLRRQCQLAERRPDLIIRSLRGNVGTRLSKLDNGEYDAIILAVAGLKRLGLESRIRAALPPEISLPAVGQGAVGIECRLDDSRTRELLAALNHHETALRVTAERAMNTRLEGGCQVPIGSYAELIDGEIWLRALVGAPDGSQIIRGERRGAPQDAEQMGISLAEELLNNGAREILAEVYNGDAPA

YjgL = target: T3, YjgL (E. coli K-12, UniProt P39336 1-604)
T3 construct: YjgL, E. coli K-12
T3 sequence (looked up): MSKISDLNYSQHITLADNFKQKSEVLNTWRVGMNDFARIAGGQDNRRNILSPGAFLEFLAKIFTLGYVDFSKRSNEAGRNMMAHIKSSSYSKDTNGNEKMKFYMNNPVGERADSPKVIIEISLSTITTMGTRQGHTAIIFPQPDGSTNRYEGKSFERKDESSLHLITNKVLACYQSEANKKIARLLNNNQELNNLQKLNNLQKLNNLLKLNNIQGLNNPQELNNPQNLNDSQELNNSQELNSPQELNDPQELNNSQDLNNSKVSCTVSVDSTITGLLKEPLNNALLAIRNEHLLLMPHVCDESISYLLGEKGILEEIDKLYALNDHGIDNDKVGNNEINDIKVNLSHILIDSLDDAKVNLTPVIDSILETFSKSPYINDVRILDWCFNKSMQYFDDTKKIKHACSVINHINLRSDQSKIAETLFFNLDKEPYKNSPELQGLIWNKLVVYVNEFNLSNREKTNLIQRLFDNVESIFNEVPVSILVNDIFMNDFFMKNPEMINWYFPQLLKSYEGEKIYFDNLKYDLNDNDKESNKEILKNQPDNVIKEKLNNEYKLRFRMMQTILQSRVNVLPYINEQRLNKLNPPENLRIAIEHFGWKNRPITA

RcsB = target: T4, RcsB (E. coli K-12, UniProt P0DMC7 1-216)
T4 construct: RcsB, E. coli K-12
T4 sequence (looked up): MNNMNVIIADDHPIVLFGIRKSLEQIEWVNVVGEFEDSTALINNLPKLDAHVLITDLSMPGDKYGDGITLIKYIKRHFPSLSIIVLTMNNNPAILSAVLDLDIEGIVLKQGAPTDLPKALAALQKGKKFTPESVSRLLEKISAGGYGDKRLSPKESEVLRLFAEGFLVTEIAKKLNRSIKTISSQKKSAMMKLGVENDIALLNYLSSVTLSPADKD

Measured: binding result

B1: N-terminal biotinylated Lactoferricin B (peptide, UniProt P24627 36-60, looked up)
peptide: Biotin-FKCRRWQWRMKKLGAPSITCVRRAF
modifications: ends and bridges not checked
notes: lactoferricin B (LfcinB), cationic antimicrobial peptide of 25 amino acids; also called biotinylated LfcinB; biotin-labeled LfcinB; source: bought: Kelowna Inc
binds: all assays above
